Experimental findings from US20210032352A1 (ANTERA THERAPEUTICS, published 2021) are described below.

For orientation: Kd means the equilibrium constant for the complex coming apart. High values mean a looser complex, low ones a tighter complex. Usually koff stands for a measure of how fast the partners let go of each other. A word on the kon: it is the second-order rate constant of association. Low readings indicate slower complex formation, high ones faster complex formation. For orientation: EC50 (read off the curve) means the concentration at which the effect is half-maximal.

Assay [1] concerns the target T1, human LRP6 ECD, Fc-tagged (human, UniProt O75581 20-1370).
T1 construct: extracellular domain; Bought; also called LRP co-receptor; not shown: Fc tag of the purchased fusion
T1 sequence (looked up): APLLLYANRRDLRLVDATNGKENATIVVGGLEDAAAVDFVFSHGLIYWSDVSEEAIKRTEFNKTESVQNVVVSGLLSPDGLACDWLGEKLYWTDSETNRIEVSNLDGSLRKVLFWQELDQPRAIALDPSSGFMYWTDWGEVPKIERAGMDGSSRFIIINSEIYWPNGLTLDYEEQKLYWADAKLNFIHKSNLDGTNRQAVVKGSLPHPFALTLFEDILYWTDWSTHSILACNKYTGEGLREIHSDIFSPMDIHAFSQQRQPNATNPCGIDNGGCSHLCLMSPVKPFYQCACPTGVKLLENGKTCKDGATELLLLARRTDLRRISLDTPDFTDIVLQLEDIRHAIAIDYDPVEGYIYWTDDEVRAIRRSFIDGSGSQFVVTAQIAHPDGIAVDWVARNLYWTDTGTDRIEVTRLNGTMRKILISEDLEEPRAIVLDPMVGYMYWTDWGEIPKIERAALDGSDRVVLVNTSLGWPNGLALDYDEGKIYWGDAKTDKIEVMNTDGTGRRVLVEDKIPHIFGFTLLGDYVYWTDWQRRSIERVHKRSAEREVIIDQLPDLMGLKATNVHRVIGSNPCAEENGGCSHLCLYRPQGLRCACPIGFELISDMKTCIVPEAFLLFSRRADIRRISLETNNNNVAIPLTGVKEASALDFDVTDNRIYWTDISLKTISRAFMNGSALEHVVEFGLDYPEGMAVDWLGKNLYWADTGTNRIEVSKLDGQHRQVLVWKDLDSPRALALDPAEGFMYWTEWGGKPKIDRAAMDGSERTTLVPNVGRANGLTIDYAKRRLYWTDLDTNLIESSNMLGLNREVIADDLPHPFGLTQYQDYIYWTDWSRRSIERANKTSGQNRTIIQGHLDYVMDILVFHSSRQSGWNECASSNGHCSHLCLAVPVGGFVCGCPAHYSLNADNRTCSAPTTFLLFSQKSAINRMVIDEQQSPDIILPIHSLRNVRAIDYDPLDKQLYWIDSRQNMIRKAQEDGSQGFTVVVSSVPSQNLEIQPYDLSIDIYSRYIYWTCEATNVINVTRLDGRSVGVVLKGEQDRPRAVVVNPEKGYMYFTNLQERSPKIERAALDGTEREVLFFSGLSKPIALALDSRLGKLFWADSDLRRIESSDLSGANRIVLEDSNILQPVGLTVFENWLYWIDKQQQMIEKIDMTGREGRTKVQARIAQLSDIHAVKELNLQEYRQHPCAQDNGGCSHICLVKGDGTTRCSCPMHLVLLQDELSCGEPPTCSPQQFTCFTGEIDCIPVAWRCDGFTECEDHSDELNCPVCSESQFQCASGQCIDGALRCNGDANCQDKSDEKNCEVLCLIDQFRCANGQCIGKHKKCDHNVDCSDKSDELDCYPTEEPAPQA
As to the kind of experiment: BLI kinetics, human LRP6 ECD.

For assay [2], the target named is T2, FZD2 CRD, Fc-tagged (human, UniProt Q14332 24-190).
T2 construct: domain: CRD; Bought; not shown: Fc tag of the purchased fusion
As to the kind of experiment: kinetic table (called BLI in paragraph 170); the row labels kd and ka are interchanged on the sheet: the KD row equals the 10^-3 row divided by the 10^5 row.

The target of assay [3] is T1, human LRP6 ECD, Fc-tagged. The description is as above.
The target in assay [4] is T3, FZD7 CRD, Fc-tagged (human, UniProt O75084 33-185). Described as above.
The target in assay [5] is T4, FZD1 CRD, Fc-tagged (human, UniProt Q9UP38 70-250).
T4 construct: domain: CRD; Bought; not shown: Fc tag of the purchased fusion
Described as above.

For assay [6], the target named is T5, CD64 (UniProt P12314 16-288).
T5 construct: also called monocyte and macrophage marker CD64
Briefly: BLI end point: IgG1, FLAg or Fab immobilised on the sensor, receptor in solution (300 nM; CD64 50 nM), signal normalised to the isotype control.
Method: (§1) Coated sensors were equilibrated in assay buffer (PBS, 1% BSA, 0.05% Tween20) and transferred into Fc receptor solutions. Association was monitored for 600 seconds, the sensors were transferred to assay buffer, and dissociation was monitored for 600 seconds. CD64 and all other Fc receptors were assayed at 50 nM or 300 nM, respectively, at pH 7.4, unless as indicated. Shake speed was 1000 rpm and temperature was 25° C. End-point response values were taken at the end of the association phase and were normalized to isotype controls. […] The association and disassociation times were 600 or 1200 seconds, respectively.

Assay [7] concerns the target T6, C1q (UniProt P02745 23-245; P02746 28-253; P02747 29-245).
T6 construct: also called complement (C1q); Clq
The assay is described as above.
Method: as §1

In assay [8] the target is T3, FZD7 CRD, Fc-tagged. Briefly: kinetic table (called BLI in paragraph 170).
Assay [9] concerns the target FcRn (UniProt P55899 24-297; P61769 21-119). Briefly: steady-state BLI at pH 6.0, FcRn immobilised, serial dilutions (0.1-225 nM) of the FLAg in solution.
Method: as §1
Assay [10] addresses T2, FZD2 CRD, Fc-tagged. As to the kind of experiment: kinetic table (called BLI in paragraph 35); quantity name and unit not printed in the table: KD in M follows from FIG. 12A, same values in nM.
Assay [11] deals with T3, FZD7 CRD, Fc-tagged. Described as above.
For assay [12], the target named is T4, FZD1 CRD, Fc-tagged. Described as above.

T4 sequence (Q9UP38 70-250): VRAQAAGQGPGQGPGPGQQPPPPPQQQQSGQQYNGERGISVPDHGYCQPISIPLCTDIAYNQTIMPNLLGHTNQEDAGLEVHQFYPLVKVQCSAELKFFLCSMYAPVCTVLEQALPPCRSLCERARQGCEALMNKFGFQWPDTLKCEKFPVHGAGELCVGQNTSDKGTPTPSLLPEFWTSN
T5 sequence (P12314 16-288 limits assumed): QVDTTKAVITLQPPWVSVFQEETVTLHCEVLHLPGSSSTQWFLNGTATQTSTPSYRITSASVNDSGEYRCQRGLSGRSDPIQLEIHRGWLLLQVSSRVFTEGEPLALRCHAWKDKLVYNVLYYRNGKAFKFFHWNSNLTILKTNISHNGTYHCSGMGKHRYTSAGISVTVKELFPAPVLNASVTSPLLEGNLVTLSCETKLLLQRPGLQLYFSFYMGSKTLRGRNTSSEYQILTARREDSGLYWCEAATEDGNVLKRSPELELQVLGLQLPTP
Sequence of FcRn (P55899 24-297 limits assumed, chain 1 of 2): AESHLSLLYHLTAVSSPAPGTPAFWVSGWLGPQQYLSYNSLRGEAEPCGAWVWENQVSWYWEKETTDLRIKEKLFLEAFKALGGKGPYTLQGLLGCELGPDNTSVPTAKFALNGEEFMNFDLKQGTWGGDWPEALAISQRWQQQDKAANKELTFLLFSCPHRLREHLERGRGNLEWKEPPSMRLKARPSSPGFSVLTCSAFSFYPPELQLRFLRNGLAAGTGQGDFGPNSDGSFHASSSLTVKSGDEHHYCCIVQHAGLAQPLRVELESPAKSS
Sequence of FcRn (P61769 21-119 limits assumed, chain 2 of 2): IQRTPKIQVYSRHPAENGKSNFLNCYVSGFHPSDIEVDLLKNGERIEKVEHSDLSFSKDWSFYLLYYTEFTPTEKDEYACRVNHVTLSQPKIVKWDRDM
T6 sequence (P02745 23-245 limits assumed, chain 1 of 3): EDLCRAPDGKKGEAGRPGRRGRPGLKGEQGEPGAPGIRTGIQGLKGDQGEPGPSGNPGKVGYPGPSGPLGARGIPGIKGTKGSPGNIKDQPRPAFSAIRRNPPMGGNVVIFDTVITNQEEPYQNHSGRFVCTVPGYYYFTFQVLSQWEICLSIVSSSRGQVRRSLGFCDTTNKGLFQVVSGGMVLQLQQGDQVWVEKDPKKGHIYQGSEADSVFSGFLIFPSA
T6 sequence (P02746 28-253 limits assumed, chain 2 of 3): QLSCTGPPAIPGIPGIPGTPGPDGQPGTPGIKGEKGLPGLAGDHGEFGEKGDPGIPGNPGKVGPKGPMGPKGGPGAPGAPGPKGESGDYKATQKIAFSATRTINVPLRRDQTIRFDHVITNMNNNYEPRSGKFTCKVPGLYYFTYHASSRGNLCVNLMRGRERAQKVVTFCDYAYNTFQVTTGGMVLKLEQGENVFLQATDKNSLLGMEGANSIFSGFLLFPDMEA
T6 sequence (P02747 29-245 limits assumed, chain 3 of 3): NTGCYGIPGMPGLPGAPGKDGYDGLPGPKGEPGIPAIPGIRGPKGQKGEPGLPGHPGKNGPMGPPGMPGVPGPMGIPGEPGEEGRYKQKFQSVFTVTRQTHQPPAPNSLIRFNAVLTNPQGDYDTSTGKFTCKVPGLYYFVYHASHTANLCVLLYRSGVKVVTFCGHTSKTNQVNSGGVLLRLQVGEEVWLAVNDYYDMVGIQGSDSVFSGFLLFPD

B1: F^P+P-L6^1+3 (5019-K/H-2539-2542) (bispecific antibody)
chain 1: EVQLVESGGGLVQPGGSLRLSCAASGFNIGSSSIHWVRQAPGKGLEWVASIYSAFASTSYADSVKGRFTISADTSKNTAYLQMNSLRAEDTAVYYCARYHFPFGFALDYWGQGTLVTVSSGGGGSDIQMTQSPSSLSASVGDRVTITCRASQSVSSAVAWYQQKPGKAPKLLIYSASSLYSGVPSRFSGSRSGTDFTLTISSLQPEDFATYYCQQGVYLFTFGQGTKVEIKLEDKTHTKVEPKTSDKTHTCPPCPAPELLGGPSVFLFPPKPKDTLMISRTPEVTCVVVDVSHEDPEVKFNWYVDGVEVHNAKTKPREEQYNSTYRVVSVLTVLHQDWLNGKEYKCKVSNKALPAPIEKTISKAKGQPREPMVFDLPPSREEMTKNQVSLWCMVKGFYPSDIAVEWESNGQPENNYKTTPPVLDSDGSFFLYSKLTVDKSRWQQGNVFSCSVMHEALHNHYTQKSLSLSPGKSGSETPGTSESATPESGGGEVQLVESGGGLVQPGGSLRLSCAASGFNISYSSIHWVRQAPGKGLEWVAYISSYYGYTYYADSVKGRFTISADTSKNTAYLQMNSLRAEDTAVYYCARAHYFPWAGAMDYWGQGTLVTVSSGGGGSDIQMTQSPSSLSASVGDRVTITCRASQSVSSAVAWYQQKPGKAPKLLIYSASSLYSGVPSRFSGSRSGTDFTLTISSLQPEDFATYYCQQYYWPITFGQGTKVEIK
chain 2: EVQLVESGGGLVQPGGSLRLSCAASGFNIGSSSIHWVRQAPGKGLEWVASIYSAFASTSYADSVKGRFTISADTSKNTAYLQMNSLRAEDTAVYYCARYHFPFGFALDYWGQGTLVTVSSGGGGSDIQMTQSPSSLSASVGDRVTITCRASQSVSSAVAWYQQKPGKAPKLLIYSASSLYSGVPSRFSGSRSGTDFTLTISSLQPEDFATYYCQQGVYLFTFGQGTKVEIKLEDKTHTKVEPKSSDKTHNCPPCPAPELLGGPSVFLFPPKPKDTLMISRTPEVTCVVVDVSHEDPEVKFNWYVDGVEVHNAKTKPREEQYNSTYRVVSVLTVLHQDWLNGKEYKCKVSNKALPAPIEKTISKAKGQPREPQVYTLPPIRELMTSNQVSLSCAVKGFYPSDIAVEWESNGQPENNYKTTPPVLDSDGSFFLVSKLTVDKSRWQQGNVFSCSVMHEALHNHYTQKSLSLSPGKSGSETPGTSESATPESGGGEVQLVESGGGLVQPGGSLRLSCAASGFNISSYYIHWVRQAPGKGLEWVASIYSSYGYTSYADSVKGRFTISADTSKNTAYLQMNSLRAEDTAVYYCARTVRGSKKPYFSGWAMDYWGQGTLVTVSSGGGGSDIQMTQSPSSLSASVGDRVTITCRASQSVSSAVAWYQQKPGKAPKLLIYSASSLYSGVPSRFSGSRSGTDFTLTISSLQPEDFATYYCQQYSWGPFTFGQGTKVEIK
B1: the Kd in [1] was 12 nM; in assay [8], 0.06 nM; in assay [10], 0.039 nM; in [11] it was 0.057 nM; in assay [12], under 0.01 nM. The koff in assay [2] was 1.9e-05 s⁻¹; in assay [3], 0.00181 s⁻¹; in assay [4] it was 2.9e-05 s⁻¹; in assay [5], under 1e-06 s⁻¹. The kon in assay [2] was found to be 479000 M⁻¹ s⁻¹; in assay [3] it was 152000 M⁻¹ s⁻¹; in assay [4], 509000 M⁻¹ s⁻¹; in assay [5] it was 395000 M⁻¹ s⁻¹. The binding result in assay [6] and in [7] was “binds” each time. Further, the “EC50 (read off the curve)” value in [9] was about 10 nM.
